The values that follow are results of earlier work, collected in patent publication US11034725B2, “Compositions and methods for treating cardiovascular disease” (Genentech, Inc., priority 2016, dated 2021).

A word on the Kd: it is the equilibrium constant for the complex coming apart.

“And” between values parts separate entries of the source, which are not always exact repeats. Identical values can stand only once.

For one data set, the target named is PCSK9 (Homo sapiens, UniProt Q8NBP7). The conditions noted are these: Zhang et al. 2014; cited from earlier work.
A further data set addresses T1, LDLR ectodomain (Homo sapiens, UniProt P01130).
T1 construct: purchased R & D Systems
The conditions noted are these: biolayer interferometry, Lipari et al. 2012; read-out: Kd, binding to LDLR, previously reported; cited from earlier work. (Biolayer interferometry detects binding as a change in optical thickness at a sensor tip.)

T1 sequence (P01130 22-788 limits assumed): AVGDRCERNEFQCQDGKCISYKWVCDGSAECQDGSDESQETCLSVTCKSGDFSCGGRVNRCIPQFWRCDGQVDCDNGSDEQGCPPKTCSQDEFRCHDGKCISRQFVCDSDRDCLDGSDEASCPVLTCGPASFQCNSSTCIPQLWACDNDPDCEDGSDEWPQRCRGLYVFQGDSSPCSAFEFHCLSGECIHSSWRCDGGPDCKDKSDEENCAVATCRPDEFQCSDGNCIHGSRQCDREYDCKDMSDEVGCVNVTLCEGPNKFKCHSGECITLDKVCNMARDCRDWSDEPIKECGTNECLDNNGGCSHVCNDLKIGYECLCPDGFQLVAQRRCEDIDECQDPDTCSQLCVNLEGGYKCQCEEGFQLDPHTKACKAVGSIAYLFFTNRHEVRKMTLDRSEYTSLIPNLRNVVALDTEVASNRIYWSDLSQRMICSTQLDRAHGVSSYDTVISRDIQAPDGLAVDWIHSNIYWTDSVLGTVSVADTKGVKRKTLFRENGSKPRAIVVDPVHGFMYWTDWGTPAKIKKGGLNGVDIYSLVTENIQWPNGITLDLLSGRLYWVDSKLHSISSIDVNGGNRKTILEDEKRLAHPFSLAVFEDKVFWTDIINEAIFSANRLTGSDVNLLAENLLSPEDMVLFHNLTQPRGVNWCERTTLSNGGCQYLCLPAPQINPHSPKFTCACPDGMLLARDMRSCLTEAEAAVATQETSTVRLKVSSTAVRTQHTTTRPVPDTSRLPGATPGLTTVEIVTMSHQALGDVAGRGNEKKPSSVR
PCSK9, sequence (Q8NBP7 153-692): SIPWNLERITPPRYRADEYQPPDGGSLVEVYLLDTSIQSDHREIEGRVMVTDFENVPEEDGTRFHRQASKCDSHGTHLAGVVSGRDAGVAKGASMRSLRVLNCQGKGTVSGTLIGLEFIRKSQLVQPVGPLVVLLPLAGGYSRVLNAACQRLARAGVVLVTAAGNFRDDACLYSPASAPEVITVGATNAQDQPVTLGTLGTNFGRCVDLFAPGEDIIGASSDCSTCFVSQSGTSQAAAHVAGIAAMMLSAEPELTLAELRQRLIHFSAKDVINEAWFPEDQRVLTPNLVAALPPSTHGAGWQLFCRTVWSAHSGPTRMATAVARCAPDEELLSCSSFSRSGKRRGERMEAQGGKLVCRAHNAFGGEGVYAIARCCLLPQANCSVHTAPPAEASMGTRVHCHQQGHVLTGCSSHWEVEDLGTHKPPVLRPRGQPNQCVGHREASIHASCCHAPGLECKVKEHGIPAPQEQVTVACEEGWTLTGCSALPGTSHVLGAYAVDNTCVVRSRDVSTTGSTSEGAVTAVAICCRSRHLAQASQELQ

As for Ac-TAFTSWEEYLDWV-NH2 [Pep2-8V2A], the “reduction of affinity for PCSK9 versus Pep2-8” value with PCSK9 is recorded as “about 10 fold”.

With “wildtype PCSK9: wildtype proprotein convertase subtilisin/kexin type 9”, the equilibrium dissociation constant (Kd) with LDLR ectodomain was 130 nM and 170 nM.
